Source: the supplement of paper PMC7877785
± gives the uncertainty stated by the source.

Assay: self-splicing fitness, log relative to wild type (ln ratio); higher = more splicing; Tetrahymena group I intron in knt gene, E. coli kanamycin selection, DiMSum; sequences stand for … in CUCUCU…GGAGGGAAAAGUUAUCAGGCAUGCACCUGGUAGCUAGUCUUUAAACCAAUAGAUUGCAUCGGUUUAAAAGGCAAGACCGUCAAAUUGCGGGAAAGGGGUCAACAGCCGUUCAGUACCAAGUCUCAGGGGAAACUUUGAGAUGGCCUUGCAAAGGGUAUGGUAAUAAGCUGACGGACAUGGUCCUAACCACGCAGCCAAGUCCUAAGUCAACAGAUCUUCUGUUGAUAUGGAUGCAGUUCACAGACUAAAUGUCGGUCGGGGAAGAUGUAUUCUUCUCAUAAGAUAUAGUCGGACCUCUCCUUAAUGGGAGCUAGCGGAUGAAGUGAUGCAACACUGGAGCCGCUGGGAACUAAUUUGUAUGCGAAAGUAUAUUGAUUAGUUUUGGAGUACUCGUGGUCG
In short: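 A randomised library covering all eight P1ex-region intron nucleotides was built with the intron in the knt kanamycin-resistance gene on pET-22b(+) and held in E. coli BL21(DE3). Cells were grown overnight at 37°C or 30°C on LB agar, with or without 25 μg/mL kanamycin, plus 100 μg/mL carbenicillin, 50 μM IPTG and 0.2% rhamnose, and pooled colonies were amplicon-sequenced on an Illumina HiSeq 2500. DiMSum fitness is the error-weighted combination of wild-type-normalised replicate fold changes, kanamycin versus none.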

Sequence	self-splicing fitness (ln) (30 °C)	self-splicing fitness (ln) (37 °C)
GUUAAGCAAUAUUACGCAUU	-2.16 ± 0.18	-1.1 ± 0.16
GAUCAGCAAUAUUACGGGCC	-0.0569 ± 0.16	-0.311 ± 0.18
CUGUAGCAAUAUUACGCGAC	-2.56 ± 0.2	-2.41 ± 0.28
CGAUAGCAAUAUUACGUAUU	-3.53 ± 0.25	-2.61 ± 0.24
UACCAGCAAUAUUACGAAGU	-2.48 ± 0.22	-2.74 ± 0.28
GGGGAGCAAUAUUACGGACG	-2.73 ± 0.32	-1.21 ± 0.28
ACCAAGCAAUAUUACGGUGC	-2.72 ± 0.14	-2.12 ± 0.23
GUGUAGCAAUAUUACGCGUA	-1.82 ± 0.26	-0.729 ± 0.17
ACGUAGCAAUAUUACGUCUC	-2.84 ± 0.19	-3.13 ± 0.32
AGACAGCAAUAUUACGCCUG	-1.88 ± 0.12	0.171 ± 0.11
UCCGAGCAAUAUUACGGGUG	-1.97 ± 0.089	-1.66 ± 0.099
AUAUAGCAAUAUUACGGAAA	–	-0.209 ± 0.33
UCAAAGCAAUAUUACGCCCC	-2.12 ± 0.39	-1.54 ± 0.37
CUAUAGCAAUAUUACGAUGU	-3.67 ± 0.4	-3.04 ± 0.43
GAUGAGCAAUAUUACGGUUU	-2.06 ± 0.097	-1.04 ± 0.13
CCCAAGCAAUAUUACGCGUC	-3.06 ± 0.16	-2.6 ± 0.29
ACGCAGCAAUAUUACGCUCG	-2.56 ± 0.12	-1.67 ± 0.16
ACUGAGCAAUAUUACGCAUC	-2.22 ± 0.24	-2.08 ± 0.24
AUGUAGCAAUAUUACGUUCU	-1.05 ± 0.082	-0.469 ± 0.094
UUGAAGCAAUAUUACGCGAC	-2.19 ± 0.18	-1.51 ± 0.29
UUUUAGCAAUAUUACGGCAG	-0.809 ± 0.11	-0.727 ± 0.15
AGGCAGCAAUAUUACGUGUA	-2.19 ± 0.1	-1.09 ± 0.11
AUAGAGCAAUAUUACGUUAC	-1.38 ± 0.19	-1.37 ± 0.3
AAAUAGCAAUAUUACGGUGG	-3.94 ± 0.21	-2.68 ± 0.17
CUCCAGCAAUAUUACGUUCC	-4.23 ± 0.46	-1.99 ± 0.35

Sequence	self-splicing fitness (ln) (30 °C)	self-splicing fitness (ln) (37 °C)
CCUCAGCAAUAUUACGUCAC	-3.97 ± 0.27	-2.36 ± 0.26
CCCUAGCAAUAUUACGGCAU	-3.41 ± 0.24	-1.94 ± 0.17
AAACAGCAAUAUUACGUCAG	-3.36 ± 0.12	-2.41 ± 0.12
AAACAGCAAUAUUACGGGCC	-3.42 ± 0.17	-2.29 ± 0.16
CAGGAGCAAUAUUACGUCAG	-3.88 ± 0.4	-1.17 ± 0.28
UCUCAGCAAUAUUACGGGGA	-2.92 ± 0.21	-1.98 ± 0.22
CGGGAGCAAUAUUACGAAUC	–	-0.75 ± 0.23
GGGAAGCAAUAUUACGCUGC	-2.83 ± 0.48	–
UGAAAGCAAUAUUACGUCGU	-4.87 ± 0.36	-1.38 ± 0.12
CUAUAGCAAUAUUACGCAUA	-3.93 ± 0.29	-2.68 ± 0.24
CUGAAGCAAUAUUACGCUAG	-1.1 ± 0.096	-0.802 ± 0.099
CUGUAGCAAUAUUACGGUCC	-2.27 ± 0.25	-2.71 ± 0.44
CAGCAGCAAUAUUACGACCG	-0.0535 ± 0.096	0.48 ± 0.12
CUAGAGCAAUAUUACGUUCC	–	0.291 ± 0.28
AUAAAGCAAUAUUACGGACG	-0.505 ± 0.11	-0.793 ± 0.13
UCAUAGCAAUAUUACGUUUA	-4.13 ± 0.39	-2.11 ± 0.2
CUACAGCAAUAUUACGCCCC	-2.86 ± 0.41	-1.4 ± 0.35
UGACAGCAAUAUUACGCAGG	-3.54 ± 0.35	-1.4 ± 0.2
CGGUAGCAAUAUUACGGUGU	-3.24 ± 0.17	-2.04 ± 0.17
CAACAGCAAUAUUACGAUGC	-3.08 ± 0.15	-2.01 ± 0.16
CAAAAGCAAUAUUACGUGUA	-3.88 ± 0.16	-2.25 ± 0.1
AGUCAGCAAUAUUACGAUCA	0.171 ± 0.099	0.226 ± 0.11
GGACAGCAAUAUUACGUGAA	-0.306 ± 0.057	-0.142 ± 0.062
UUUAAGCAAUAUUACGGGCC	–	-2.57 ± 0.49
ACCAAGCAAUAUUACGAUAU	-3.22 ± 0.11	-2.17 ± 0.095

Sequence	self-splicing fitness (ln) (30 °C)	self-splicing fitness (ln) (37 °C)
CAAUAGCAAUAUUACGAUUG	-3.32 ± 0.17	-1.9 ± 0.16
GCUUAGCAAUAUUACGCCAC	-1.67 ± 0.32	-1.17 ± 0.45
CACUAGCAAUAUUACGGUAC	-3.09 ± 0.2	-2.87 ± 0.19
UCGCAGCAAUAUUACGCUUC	-1.8 ± 0.34	-1.68 ± 0.44
AAAUAGCAAUAUUACGUCCA	-0.829 ± 0.084	-0.327 ± 0.1
CAGUAGCAAUAUUACGACUA	0.402 ± 0.089	0.675 ± 0.11
AAAAAGCAAUAUUACGCUAU	-2.04 ± 0.11	-1.31 ± 0.11
CUACAGCAAUAUUACGCAUA	-3.32 ± 0.24	-2.28 ± 0.2
UGUGAGCAAUAUUACGAGGU	-3.52 ± 0.26	-2.55 ± 0.23
CGAAAGCAAUAUUACGUUCC	-2.1 ± 0.21	-0.586 ± 0.22
CGGCAGCAAUAUUACGUGAA	-2.25 ± 0.11	-1.65 ± 0.15
GGCUAGCAAUAUUACGGGCC	–	-1.98 ± 0.42
CAACAGCAAUAUUACGGAGC	-2.28 ± 0.15	-3.18 ± 0.27
UGCCAGCAAUAUUACGUGAA	-1.73 ± 0.09	-0.422 ± 0.1
UGGAAGCAAUAUUACGCCAG	-1.55 ± 0.18	0.0553 ± 0.21
UGGAAGCAAUAUUACGGUAG	-1.89 ± 0.12	-1.82 ± 0.11
UCGGAGCAAUAUUACGAAUU	-2.9 ± 0.26	-2.69 ± 0.28
CGUUAGCAAUAUUACGAUAG	-0.0326 ± 0.15	-0.211 ± 0.14
CGGGAGCAAUAUUACGCACG	-1.33 ± 0.31	–
AACAAGCAAUAUUACGCAGU	-3.43 ± 0.19	-1.93 ± 0.16
AGUGAGCAAUAUUACGUCGU	-3.79 ± 0.2	-2.07 ± 0.14
AGUUAGCAAUAUUACGUGCG	-0.586 ± 0.082	-0.00484 ± 0.093
CUGAAGCAAUAUUACGUAAU	-2.87 ± 0.24	-2.17 ± 0.5
UAUUAGCAAUAUUACGGAUU	-1.74 ± 0.12	-0.699 ± 0.11
GCCUAGCAAUAUUACGUGAU	-0.0579 ± 0.072	0.159 ± 0.079

Sequence	self-splicing fitness (ln) (30 °C)	self-splicing fitness (ln) (37 °C)
CCAGAGCAAUAUUACGAUAA	-3.17 ± 0.29	-2.04 ± 0.2
UGCCAGCAAUAUUACGCUUG	-2.85 ± 0.16	-2.33 ± 0.19
GCUGAGCAAUAUUACGAUAU	-2.62 ± 0.28	-1.08 ± 0.2
UGGUAGCAAUAUUACGUUCC	-2.33 ± 0.23	-1.19 ± 0.36
GCGGAGCAAUAUUACGCGUU	-2.26 ± 0.24	-1.23 ± 0.22
CCACAGCAAUAUUACGCAGU	-3.58 ± 0.15	-2.92 ± 0.19
UAACAGCAAUAUUACGCGUC	-4.61 ± 0.34	-2.7 ± 0.18
CAACAGCAAUAUUACGCCGC	-4.57 ± 0.34	–
CCGCAGCAAUAUUACGCUGG	-2.24 ± 0.11	-2.92 ± 0.24
GGUCAGCAAUAUUACGCUGU	-3.34 ± 0.21	-1.62 ± 0.18
GAGAAGCAAUAUUACGUAUU	-3.16 ± 0.14	-3.08 ± 0.23
UCGAAGCAAUAUUACGGUUA	-0.579 ± 0.12	-0.97 ± 0.097
UCUUAGCAAUAUUACGUCAC	–	-1.9 ± 0.33
CACGAGCAAUAUUACGCUGG	-3.66 ± 0.16	-2.32 ± 0.16
CCAUAGCAAUAUUACGGAAA	-2.94 ± 0.41	-2.36 ± 0.34
GACCAGCAAUAUUACGAAGC	-0.849 ± 0.062	-0.511 ± 0.093
CCCGAGCAAUAUUACGGCAU	-3.28 ± 0.37	-1.85 ± 0.32
AUCGAGCAAUAUUACGUCUA	-3.26 ± 0.32	-0.994 ± 0.13
UCACAGCAAUAUUACGGGGG	-2.39 ± 0.15	-2.03 ± 0.16
CAGAAGCAAUAUUACGGCGU	-2.01 ± 0.18	-1.18 ± 0.18
CGUAAGCAAUAUUACGGAUA	–	-2.1 ± 0.38
UGGUAGCAAUAUUACGGUGU	-4.11 ± 0.31	-0.563 ± 0.13
UGCGAGCAAUAUUACGAAAC	-2.99 ± 0.17	-3.8 ± 0.34
